Measurements from patent US20170355757A1 (Regeneron, published 2017).
One block for each binder: values may come before it.

What was measured:
human C5 [1] = target: T1, human C5 (human, UniProt P01031 19-1676); assay: cell-based or functional assay
African green monkey C5 = African green monkey C5 (African green monkey); assay: cell-based or functional assay
human C5 R885C-mmh [2] = target: human C5 R885C-mmh (human, UniProt P01031 19-1676); assay: cell-based or functional assay
human C5 R885H-mmh [3] = target: human C5 R885H-mmh (human, UniProt P01031 19-1676); assay: cell-based or functional assay
monkey C5-mmh [4] = target: T2, monkey C5-mmh (monkey, UniProt P01031 19-1676 (human entry), limits assumed); assay: SPR (Biacore), mAb captured, dissociation of monkey C5 at pH7.4 vs pH6.0, 37°C
T2 construct: recombinant, with C-terminal myc-myc-hexahistidine tag
T2 chain: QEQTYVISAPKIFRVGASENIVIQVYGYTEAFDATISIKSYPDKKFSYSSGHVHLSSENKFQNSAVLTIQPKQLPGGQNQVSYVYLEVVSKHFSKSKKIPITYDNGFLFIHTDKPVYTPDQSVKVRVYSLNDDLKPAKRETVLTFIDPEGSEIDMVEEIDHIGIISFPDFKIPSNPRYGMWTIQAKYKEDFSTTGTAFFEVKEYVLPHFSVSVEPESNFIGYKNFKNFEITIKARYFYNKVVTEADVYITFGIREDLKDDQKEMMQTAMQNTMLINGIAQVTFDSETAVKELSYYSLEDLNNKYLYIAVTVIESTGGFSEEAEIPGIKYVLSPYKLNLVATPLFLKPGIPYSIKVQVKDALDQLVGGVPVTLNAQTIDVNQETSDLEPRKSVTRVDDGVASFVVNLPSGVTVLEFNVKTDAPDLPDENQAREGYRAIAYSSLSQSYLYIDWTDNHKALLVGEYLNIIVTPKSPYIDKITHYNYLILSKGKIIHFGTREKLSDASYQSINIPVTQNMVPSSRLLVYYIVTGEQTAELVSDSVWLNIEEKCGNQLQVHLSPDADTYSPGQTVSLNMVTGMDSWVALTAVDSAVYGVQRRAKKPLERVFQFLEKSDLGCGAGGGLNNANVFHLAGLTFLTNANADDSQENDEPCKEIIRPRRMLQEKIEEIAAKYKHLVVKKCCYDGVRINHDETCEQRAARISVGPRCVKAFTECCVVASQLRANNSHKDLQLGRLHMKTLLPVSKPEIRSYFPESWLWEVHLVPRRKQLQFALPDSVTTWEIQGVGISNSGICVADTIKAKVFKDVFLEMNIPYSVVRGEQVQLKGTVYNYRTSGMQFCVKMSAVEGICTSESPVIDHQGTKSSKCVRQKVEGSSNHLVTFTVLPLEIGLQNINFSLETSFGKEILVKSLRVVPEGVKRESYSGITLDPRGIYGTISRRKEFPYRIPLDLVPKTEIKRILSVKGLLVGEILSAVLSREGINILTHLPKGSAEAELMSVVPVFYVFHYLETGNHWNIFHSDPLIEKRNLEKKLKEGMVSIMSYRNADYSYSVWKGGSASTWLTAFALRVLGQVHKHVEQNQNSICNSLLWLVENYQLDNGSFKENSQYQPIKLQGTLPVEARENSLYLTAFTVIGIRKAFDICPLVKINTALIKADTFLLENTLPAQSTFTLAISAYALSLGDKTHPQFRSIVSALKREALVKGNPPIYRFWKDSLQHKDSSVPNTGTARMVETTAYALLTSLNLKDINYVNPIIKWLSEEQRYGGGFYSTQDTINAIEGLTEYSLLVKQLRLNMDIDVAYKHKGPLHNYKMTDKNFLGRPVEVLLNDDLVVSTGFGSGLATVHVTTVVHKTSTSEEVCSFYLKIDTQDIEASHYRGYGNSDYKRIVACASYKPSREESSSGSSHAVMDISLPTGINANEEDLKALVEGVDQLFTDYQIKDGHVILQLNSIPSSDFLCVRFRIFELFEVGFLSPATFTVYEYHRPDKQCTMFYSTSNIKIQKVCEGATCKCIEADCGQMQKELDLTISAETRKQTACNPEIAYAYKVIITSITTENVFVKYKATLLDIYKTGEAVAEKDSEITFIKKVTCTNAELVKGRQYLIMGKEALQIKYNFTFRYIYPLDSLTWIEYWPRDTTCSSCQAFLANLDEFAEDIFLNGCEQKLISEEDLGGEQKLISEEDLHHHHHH

human C5 [5] = target: T1, human C5; assay: cell-based or functional assay; remark: listed apart in the source
Cynomolgus monkey C5 = Cynomolgus monkey C5 (cynomolgus monkey, UniProt A0A2K5U1T1 19-1676); assay: cell-based or functional assay
monkey C5-mmh [6] = target: T2, monkey C5-mmh; assay: SPR (Biacore), mAb captured, dissociation of monkey C5 at pH7.4 vs pH6.0, 25°C
human C5 [7] = target: T3, human C5 (human, UniProt P01031 19-1676); assay: SPR, mAb captured via anti-hFc, dissociation at pH7.4 vs pH6.0, 25C
T3 construct: Bought human C5 (EMD #204888, said elsewhere to be purified from plasma); also called hC5; complement component 5
In short: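 Anti-C5 mAbs (human IgG4 Fc) captured on an amine-coupled mouse anti-human Fc surface; recombinant C5 dissociation followed by Biacore T200 in PBS-T (0.01M phosphate, 0.15M NaCl, 0.05% Tween-20) at pH7.4 or pH6.0. Dissociative half-life (t½) calculated from kd.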

human C5 R885C-mmh [8] = target: T4, human C5 R885C-mmh (human, UniProt P01031 19-1676); assay: SPR, mAb captured via anti-hFc, 25C
T4 construct: also called human C5 variant R885C
In short: (§1)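 Anti-C5 mAbs were held by immobilised mouse anti-human Fc, and untagged or mmh-tagged C5 flowed 3 min, then buffer 8 min, in HBST pH 7.4.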

human C5 R885H-mmh [9] = target: T5, human C5 R885H-mmh (human, UniProt P01031 19-1676); assay: SPR, mAb captured via anti-hFc, 25C
T5 construct: also called human C5 variant R885H
In short: as §1

monkey C5-mmh [10] = target: T6, monkey C5-mmh (monkey, UniProt P01031 19-1676 (human entry), limits assumed); assay: SPR, mAb captured via anti-hFc, 37C
T6 construct: Recombinant monkey C5 with a C-terminal myc-myc-hexahistidine tag
T6 chain: T2 chain
In short: as §1

human C5 R885C-mmh [11] = target: T4, human C5 R885C-mmh; assay: SPR, mAb captured via anti-hFc, 37C
In short: as §1

human C5 R885H-mmh [12] = target: T5, human C5 R885H-mmh; assay: SPR, mAb captured via anti-hFc, 37C
In short: as §1

IC50, inhibition of CDC of Daudi cells, 1.66% human serum (human C5 [1]): 1.7 nM
IC50, inhibition of CDC of Daudi cells, 1.66% African Green monkey serum (African green monkey C5): 14 nM
IC50, inhibition of CDC of Daudi cells, C5 depleted human serum and 6.6 nM C5 Variant R885C (human C5 R885C-mmh [2]): 0.45 nM
IC50, inhibition of CDC of Daudi cells, C5 depleted human serum and 6.6 nM C5 Variant R885H (human C5 R885H-mmh [3]): 1.2 nM
t½ Ratio pH7.4/pH6.0 (monkey C5-mmh [4]): 2.4
t½ Ratio pH7.4/pH6.0 (monkey C5-mmh [6]): 5.8
B1: H4H12183P2 (antibody, human IgG4, V domains shown)
VH: QVQLQESGPALVKPSQTLSLTCTVSGGSIIRGSTYWSWVRQFPGKGLEWIGYSYYSGTAYYNPSLESRATISVDTSKNQFSLNLKSVTAADTAVYYCTREIGVAGLFDIWGQGTLVTVSS
VL: not shown
notes: H4H: human IgG4 Fc with S108P hinge mutation
Human AP % Max Inhibition, hemolysis assay, NHS (human C5 [5]): 78.9%
Human AP IC50, hemolysis assay, NHS (human C5 [5]): 160 nM
Human CP % Max Inhibition, hemolysis assay, NHS (human C5 [5]): 99.9%
Human CP IC50, hemolysis assay, NHS (human C5 [5]): 5.88 nM
Cyno AP % Max Inhibition, hemolysis assay, 5% serum (Cynomolgus monkey C5): 100%
Cyno CP % Max Inhibition, hemolysis assay, 5% serum (Cynomolgus monkey C5): 64.6%
Cyno Serum AP IC50, hemolysis assay, 5% serum (Cynomolgus monkey C5): 29.6 nM
Cyno Serum CP IC50, hemolysis assay, 5% serum (Cynomolgus monkey C5): 142 nM

t1/2 Ratio pH7.4/pH6.0 (human C5 [7]): ≤ 0.5
100 nM Human C5 R885C-mmh Bound (RU) (human C5 R885C-mmh [8]): 427 RU
Kd (human C5 R885C-mmh [8]): 0.447 nM
koff (human C5 R885C-mmh [8]): 0.00016 s⁻¹
kon (human C5 R885C-mmh [8]): 357000 M⁻¹ s⁻¹
t1/2 (human C5 R885C-mmh [8]): 72 min
100 nM Human C5 R885H-mmh Bound (RU) (human C5 R885H-mmh [9]): 442 RU
Kd (human C5 R885H-mmh [9]): 0.394 nM
koff (human C5 R885H-mmh [9]): 0.000161 s⁻¹
kon (human C5 R885H-mmh [9]): 409000 M⁻¹ s⁻¹
t1/2 (human C5 R885H-mmh [9]): 72 min
100 nM monkey C5-mmh Bound (RU) (monkey C5-mmh [10]): 60 RU
Kd (monkey C5-mmh [10]): 1.67 nM
koff (monkey C5-mmh [10]): 0.000871 s⁻¹
kon (monkey C5-mmh [10]): 521000 M⁻¹ s⁻¹
t1/2 (monkey C5-mmh [10]): 13 min
100 nM Human C5 R885C-mmh Bound (RU) (human C5 R885C-mmh [11]): 61 RU
Kd (human C5 R885C-mmh [11]): 2.05 nM
koff (human C5 R885C-mmh [11]): 0.00087 s⁻¹
kon (human C5 R885C-mmh [11]): 424000 M⁻¹ s⁻¹
t1/2 (human C5 R885C-mmh [11]): 13 min
100 nM Human C5 R885H-mmh Bound (RU) (human C5 R885H-mmh [12]): 64 RU
Kd (human C5 R885H-mmh [12]): 1.5 nM
koff (human C5 R885H-mmh [12]): 0.000839 s⁻¹
kon (human C5 R885H-mmh [12]): 559000 M⁻¹ s⁻¹
t1/2 (human C5 R885H-mmh [12]): 14 min
B2: H4H12170P (antibody, human IgG4, V domains shown)
VH: QVQLVESGGGVVQPGRSLRLSCAASGFTFSGYGMHWVRQAPGKGLEWVALIWLDGSNDYYADSVKGRFTISRDNSKNTLYLQMNRLRAEDTAVYYCARDGPVAAIPDYWGQGTLVTVSS
VL: DIQMTQSPSTLSASVGDRVTITCRASQSISRWLAWYQLKPGKAPKLLIYKASSLESGVPSRFSGSGSGTDFTLTISSLQPDDFATYYCQQYNTYSYTFGQGTKLEIK
notes: Human IgG4 Fc with S108P hinge mutation (H4H)
